Target: myc-tagged full-length palmitoyl acyl transferase zinc-finger DHHC type containing 17 (zD17) (UniProt Q8IUH5)
Sequence (Q8IUH5 whole entry): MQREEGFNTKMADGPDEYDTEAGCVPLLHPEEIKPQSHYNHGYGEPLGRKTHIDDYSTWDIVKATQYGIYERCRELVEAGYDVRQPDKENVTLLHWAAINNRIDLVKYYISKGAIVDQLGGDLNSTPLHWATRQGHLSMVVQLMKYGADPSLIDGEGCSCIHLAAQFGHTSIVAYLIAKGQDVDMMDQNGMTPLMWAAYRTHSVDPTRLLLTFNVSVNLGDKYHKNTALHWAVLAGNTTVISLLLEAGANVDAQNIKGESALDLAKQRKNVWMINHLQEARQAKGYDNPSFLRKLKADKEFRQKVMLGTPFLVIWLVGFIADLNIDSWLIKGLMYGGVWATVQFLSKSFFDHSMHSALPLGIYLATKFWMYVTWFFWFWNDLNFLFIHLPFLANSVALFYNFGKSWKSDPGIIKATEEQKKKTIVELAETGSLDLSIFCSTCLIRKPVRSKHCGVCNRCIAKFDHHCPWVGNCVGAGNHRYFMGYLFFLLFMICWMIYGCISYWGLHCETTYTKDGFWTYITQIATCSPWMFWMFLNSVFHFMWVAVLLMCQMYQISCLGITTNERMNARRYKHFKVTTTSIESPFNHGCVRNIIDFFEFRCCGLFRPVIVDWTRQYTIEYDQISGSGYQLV

Substance: FLAG-kiMKK7 (kinase-inactive MKK7)
- JNK3 phosphorylation: resulting in attenuated JNK3 phosphorylation

Source: US20150225704
